According to US20110262445A1 (CEPHALON AUSTRALIA, published 2011):
Substitutions are numbered along the chain they refer to. Names and notes keep the numbering of the source.

B1: scFv CP-A6 (scFv)
scFv: QVQLVQSGAEVKKPGASVKVSCKASGYTFTDYYLHWVRQAPGQGLEWMGWIDPENGDTEHAPKFQGRVTMTTDTSTSTAYMELRSLRSDDTAVYYCNANKELRYFDVWGQGTMVTVSSGGGGSGGGGSGGGGSEIVMTQSPATLSVSPGERATLSCRASQSISINLHWYQQKPGQAPRLLIYFASQSISGIPARFSGSGSGTEFTLTISSLQSEDFAVYYCQQSNSFPLTFGGGTKVEIKR
notes: scFv-80 variant: VH Y59H; not shown: proprietary C-terminal FLAG tag
B2: scFv CU-A6 (scFv)
scFv: B1 scFv with F29L, H60Y, T112A, S196F
notes: scFv-80 variant: VH F29L, T107A; VL S63F; not shown: proprietary C-terminal FLAG tag
B3: Antibody 34 (antibody, human IgG1, kappa, V domains shown)
VH: EVQLVQSGAEVKKPGATVKISCKVSGYTFTDYYMHWVQQAPGKGLEWMGWIDPENGDTEYAPKFQGRVTITADTSTDTAYMELSSLRSEDTAVYYCNACKELRYFDVWGQGTMVTVSS
VL: EIVMTQSPATLSVSPGERATLSCRASQSISINLHWYQQKPGQAPRLLIYFASQSISGIPARFSGSGSGTEFTLTISSLQSEDFAVYYCQQSNSWPLTFGGGTKVEIKR
B4: Antibody 37 (antibody, human IgG1, kappa, V domains shown)
VH: B3 VH
VL: B3 VL with M4L, V13L, E70D, Q79E, S80P
notes: Superhumanized, backmutated heavy chain
B5: Antibody 40 (antibody, human IgG1, kappa, V domains shown)
VH: B3 VH with N97A, A98T
VL: EIVLTQSPDFQSVTPKEKVTITCRASQSISINLHWYQQKPDQSPKLLIKFASQSISGVPSRFSGSGSGTDFTLTINSLEAEDAATYYCQQSNSWPLTFGGGTKVEIKR
notes: Superhumanized PMA204
B6: human IL-12p40 (ligand)
chain: IWELKKDVYVVELDWYPDAPGEMVVLTCDTPEEDGITWTLDQSSEVLGSGKTLTIQVKEFGDAGQYTCHKGGEVLSHSLLLLHKKEDGIWSTDILKDQKEPKNKTFLRCEAKNYSGRFTCWWLTTISTDLTFSVKSSRGSSDPQGVTCGAATLSAERVRGDNKEYEYSVECQEDSACPAAEESLPIEVMVDAVHKLKYENYTSSFFIRDIIKPDPPKNLQLKPLKNSRQVEVSWEYPDTWSTPHSYFSLTFCVQVQGKSKREKKDRVFTDKTSATVICRKNASISVRAQDRYYSSSWSEWASVPCS
notes: p40 monomer; also called p40 subunit
B7: human IL-12 (ligand)
chain 1: B6 chain
chain 2: RNLPVATPDPGMFPCLHHSQNLLRAVSNMLQKARQTLEFYPCTSEEIDHEDITKDKTSTVEACLPLELTKNESCLNSRETSFITNGSCLASRKTSFMMALCLSSIYEDLKMYQVEFKTMNAKLLMDPKRQIFLDQNMLAVIDELMQALNFNSETVPQKSSLEEPDFYKTKIKLCILLHAFRIRAVTIDRVMSYLNAS
notes: Recombinant (Peprotech); FLAG-tagged IL-12 in the flow cytometry assays, biotinylated in the IL-12Rβ2 assay; also called hIL-12
B8: human IL-23 (ligand)
chain 1: B6 chain
chain 2: RAVPGGSSPAWTQCQQLSQKLCTLAWSAHPLVGHMDLREEGDEETTNDVPHIQCGDGCDPQGLRDNSQFCLQRIHQGLIFYEKLLGSDIFTGEPSLLPDSPVGQLHASLLGLSQLLQPEGHHWETQQIPSLSPSQPWQRLLLRFKILRSLQAFVAVAARVFAHGAATLSP
notes: Recombinant (Ebioscience); HIS-tagged in flow cytometry, biotinylated in some assays; also called hIL-23; rhIL-23
B9: Antibody 176 (antibody, human IgG1, kappa)
heavy: not shown
light: DIQMTQSPSSVSASVGDRVTITCRASQSISINLHWYQQKPGKAPKLLIYFASQSISGVPSRFSGSGSGTDFSLTINSLQTEDFATYYCQQSNSFPLTFGGGTKVEIKRTVAAPSVFIFPPSDEQLKSGTASVVCLLNNFYPREAKVQWKVDNALQSGNSQESVTEQDSKDSTYSLSSTLTLSKADYEKHKVYACEVTHQGLSSPVTKSFNRGEC
B10: Antibody 178 (antibody, human IgG1, kappa, V domains shown)
VH: EVQLVQSGAEVKKPGATVKISCKASGYALSDYYLHWVRQAPEKGLEWMGWIDPENGDTEYAPKFQGRVTITADTSTDTGYLELSSLRSEDTAVYYCAANKELRYFDVWGQGTLVTVSS
VL: DIQMTQSPSSVSASVGDRVTITCRASQSISINLHWYQQKPGKAPKLLIYFASQSISGVPSRFSGSGSGTDFSLTINSLQTEDFATYYCQQSNSFPLTFGGGTKVEIKR

Tests used:
[1] = target: B8; experiment: SPR, purified scFv captured via FLAG
Description: (§1) A number of the scFv variants presented in TABLE 4 were selected for full characterization of binding kinetics, encompassing a broad range of mutation profiles and binding affinities. Large-scale protein expressions were carried out for each scFv. The expressed scFvs were purified as monomeric proteins and tested for binding against IL-12 and IL-23 by SPR (TABLE 5).
(§2) Purified scFvs were subjected to full kinetic characterization using a BIAcore T100 biosensor (GE Healthcare). Approximately 10,000 RU of the proprietry FLAG-specific capture molecule was immobilized on a CM5 Series S Sensor chip, using standard amine coupling chemistry in flow cells (FC) 1 and FC2 (or alternatively FC3 and FC4) of the BIAcore T100 Biosensor. The running buffer used was HBS-EP+ (BIAcore) and interactions measured at 30° C. or 35° C. to promote differentiation of scFvs with very similiar kd values. Peak purified FLAG-tagged scFvs (prepared as described in the previous paragraph) were diluted to 10 nM in running buffer, and captured on FC2 at a flow rate of 10 μl/min in order to capture 50 RU of scFv (typically 60 sec was sufficient to capture this level of tagged scFv). After an appropriate stabilization period, the target, IL-12 or IL-23, were passed over FC1 and FC2 at a flow rate of 60 μl/min at concentrations ranging from 81 nM to 0.13 nM (using a five-fold dilution of IL-12) and 81 nM to 1 nM (using a three-fold dilution of IL-23). The contact time for association was 180 sec and dissociation measured for 10 mins for the highest concentration and 300 sec for all other concentrations in the series. The sensorgram data from FC2 was subtracted from FC1 and a buffer only control. The curves were fitted using a 1:1 Langmuir equation to generate the kₐ, kd and KD values.

[2] = target: B7; experiment: SPR, purified scFv captured via FLAG
Description: as §1, §2

[3] = target: B8; experiment: SPR, purified scFv captured via FLAG; LOD estimated 1 × 10^-5 s^-1
Description: as §1, §2

[4] = target: B8; experiment: SPR screen, crude scFv captured via FLAG
Description: Approximately 6500 individual scFvs recovered from the ribosome display reactions were expressed and screened for binding against IL-23 using a high-throughout SPR assay. The variants were ranked according to the kd and the best variants were sequenced at the nucleic acid level.
High-throughput SPR screening was conducted using a BIAcore A100 biosensor (GE Healthcare). Approximately 10 000 RU of the proprietary FLAG-specific capture molecule was immobilized on a CM5 Series S Sensor chip, using standard amine coupling chemistry on Spots 1 & 5 (outer spots) and 3,000RU to Spots 2 & 4 (inner spots) in each of the four flow cells of the BIAcore A100 Biosensor. The running buffer used was HBS-EP+ (BIAcore) and all interactions measured at 25° C. Crude periplasmic preparations of FLAG-tagged scFvs (prepared as described in the previous paragraph), were diluted two-fold in running buffer before capturing at a flow rate of 5u1/min for 60 sec. Approx. 100RU (on outer spots) and 50RU (on inner spots) of tagged scFv was captured. Following a 2 min stabilization period, IL-23 was passed over all spots of all four flow cells simultaneously at a flow rate of 30u1/min for 120 sec and dissociation monitored for 200 sec. Generated sensorgrams were referenced against the unmodified spot 3 of each flow cell, and fitted using a 1:1 Langmuir equation with R1 set to local to account for varying ligand densities to generate the kₐ, kd and KD values.

[5] = target: B7; experiment: ELISA, coated IL-12
In short: (§3)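 Each value is an absorbance measuring binding. Plates (Maxisorp) carried cytokine coated at 1 μg/mL in carbonate buffer pH 9.6 overnight at 4° C, were blocked with 1% BSA in PBS for 1 hour at 25° C, and received antibody titrations for 1 hour at 25° C. Detection used goat anti-human IgG or anti-murine immunoglobulin HRP at 1:2000 for 1 hour, then TMB stopped with 1M HCl, with absorbance taken at 450 nm (reference 620 nm).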

[6] = target: B8; experiment: ELISA, coated IL-23
In short: as §3

[7] = target: T1, IL-12Rβ1 on stably transfected Jurkat cells (human, UniProt P42701 24-662); experiment: flow cytometry; binding blocked by Antibody 202.1
T1 construct: whole, on cells; Cell line negative for IL-12Rβ2 and IL-23R; also called IL-12Rβ1 Jurkat cell line
In short: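 Jurkat cells stably transfected with IL-12Rβ1 were used. FLAG- or HIS-tagged cytokine at 250 ng/ml was preincubated with antibody (10 to 0.01 μg/ml, half-log dilutions) for one hour at 37° C, then cells at 10⁶/ml were added for a further hour. Cells were washed in PBS/10% FBS. Cell-bound cytokine was detected with phycoerythrin anti-HIS or FITC anti-FLAG on a Beckman-Coulter Quanta, and blocking of receptor binding was the read-out.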

[8] = target: B8; experiment: ELISA
In short: as §3

[9] = target: B7; experiment: ELISA
In short: as §3

Binder: B1
kon [1]: 310000 M⁻¹ s⁻¹ | Kd [2]: 0.061 nM | koff [2]: 0.00012 s⁻¹ | kon [2]: 2e+06 M⁻¹ s⁻¹ | koff [3]: < 1e-05 s⁻¹ | koff [4]: 0.00019 s⁻¹

Binder: B2
kon [1]: 300000 M⁻¹ s⁻¹ | Kd [2]: 0.048 nM | koff [2]: 9.7e-05 s⁻¹ | kon [2]: 2e+06 M⁻¹ s⁻¹ | koff [3]: < 1e-05 s⁻¹ | koff [4]: 0.00019 s⁻¹

Binder: B3
binding result [5]: binds | binding result [6]: binds

Binder: B4
binding result [5]: binds | binding result [6]: binds

Binder: B5
binding result [5]: binds | binding result [6]: binds

Binder: B6
binding result [7]: binds

Binder: B7
binding result [7]: binds

Binder: B8
binding result [7]: binds

Binder: B9
binding result [8]: binds | binding result [9]: binds

Binder: B10
binding result [8]: binds | binding result [9]: binds
